The test deals with T1, streptavidin (from Streptomyces avidinii, 50677, Sigma-Aldrich) (Streptomyces avidinii, UniProt P22629 37-163, limits assumed).
T1 construct: Commercial protein used as received
Briefly: graphene FET sensor, Langmuir fit of response against concentration; mixed monolayer (25% bio-GrBP5, 75% SS-GrBP5) washed before SA was added, BSA background. How it is done:
A 20 μl drop of water was placed on the sensor and the resistance was allowed to equilibrate. The device was maintained in a hydration chamber at 100% humidity to prevent evaporation. Analyte was added to the static drop on the sensor in the appropriate concentrations, so that the total volume of the drop never exceeded 35μl. Data was collected from two distinct devices and each experiment was reproduced at least once. See supporting information for additional data.
By combining the anti-fouling properties of SS-GrBP5 with the biotinylated probe peptide, we created a sensor capable of selective detection of streptavidin in a bovine serum albumin solution. A mixed peptide monolayer consisting of 25% bio-GrBP5 and 75% SS-GrBP5 was formed in a single step from a solution with an overall concentration of 10 μg/ml. […] Guided by the results in FIG. 21, we introduced 5 μg/ml BSA to the sensor and detected no binding (FIG. 22C). We then introduced sequentially increasing concentrations of SA to the sensor, while maintaining the levels of BSA, and were able to reliably detect streptavidin at 100 ng/ml, although some signal was present at even lower concentrations (FIG. 22C). […] The overall stability of the bio-GrBP5 appears to have been improved by co-assembly with SS-GrBP5, displaying very high coverage and density. […]

Consider one molecule from patent US20140249052A1 (University of Washington, published 2014).

T1 sequence (P22629 37-163 limits assumed): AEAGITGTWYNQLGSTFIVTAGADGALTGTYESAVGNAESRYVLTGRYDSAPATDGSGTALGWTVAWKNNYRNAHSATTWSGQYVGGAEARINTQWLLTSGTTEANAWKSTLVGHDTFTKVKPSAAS

B1: Bio-GrBP5 (biotin-graphite binding peptide fusion, Bio-IMVTESSDYSSY) (peptide)
peptide: IMVTESSDYSSY
HELM: PEPTIDE1{[O=C1N[C@H]2[C@H](CS[C@H]2CCCCC(=O)[*:2])N1].I.M.V.T.E.S.S.D.Y.S.S.Y}$$$$V2.0
SMILES: CC[C@H](C)[C@H](NC(=O)CCCC[C@@H]1SC[C@@H]2NC(=O)N[C@@H]21)C(=O)N[C@@H](CCSC)C(=O)N[C@H](C(=O)N[C@H](C(=O)N[C@@H](CCC(=O)O)C(=O)N[C@@H](CO)C(=O)N[C@@H](CO)C(=O)N[C@@H](CC(=O)O)C(=O)N[C@@H](Cc1ccc(O)cc1)C(=O)N[C@@H](CO)C(=O)N[C@@H](CO)C(=O)N[C@@H](Cc1ccc(O)cc1)C(=O)O)[C@@H](C)O)C(C)C
notes: Synthetic 12-mer with N-terminal biotin; In the assays it was self-assembled on graphite (nanowires or monolayer) or on a graphene FET sensor; also called biotinilated peptide; bio-GrBP5 peptide nanowires
In general, Kd refers to the constant that tells how readily two partners part at equilibrium. Read a low Kd as higher affinity. Take B1: the Kd is approximately 1.5 nM.
